Target: Human recombinant ADAM17 (human) (UniProt P78536)
Sequence of UniProt P78536 (P78536 18-824): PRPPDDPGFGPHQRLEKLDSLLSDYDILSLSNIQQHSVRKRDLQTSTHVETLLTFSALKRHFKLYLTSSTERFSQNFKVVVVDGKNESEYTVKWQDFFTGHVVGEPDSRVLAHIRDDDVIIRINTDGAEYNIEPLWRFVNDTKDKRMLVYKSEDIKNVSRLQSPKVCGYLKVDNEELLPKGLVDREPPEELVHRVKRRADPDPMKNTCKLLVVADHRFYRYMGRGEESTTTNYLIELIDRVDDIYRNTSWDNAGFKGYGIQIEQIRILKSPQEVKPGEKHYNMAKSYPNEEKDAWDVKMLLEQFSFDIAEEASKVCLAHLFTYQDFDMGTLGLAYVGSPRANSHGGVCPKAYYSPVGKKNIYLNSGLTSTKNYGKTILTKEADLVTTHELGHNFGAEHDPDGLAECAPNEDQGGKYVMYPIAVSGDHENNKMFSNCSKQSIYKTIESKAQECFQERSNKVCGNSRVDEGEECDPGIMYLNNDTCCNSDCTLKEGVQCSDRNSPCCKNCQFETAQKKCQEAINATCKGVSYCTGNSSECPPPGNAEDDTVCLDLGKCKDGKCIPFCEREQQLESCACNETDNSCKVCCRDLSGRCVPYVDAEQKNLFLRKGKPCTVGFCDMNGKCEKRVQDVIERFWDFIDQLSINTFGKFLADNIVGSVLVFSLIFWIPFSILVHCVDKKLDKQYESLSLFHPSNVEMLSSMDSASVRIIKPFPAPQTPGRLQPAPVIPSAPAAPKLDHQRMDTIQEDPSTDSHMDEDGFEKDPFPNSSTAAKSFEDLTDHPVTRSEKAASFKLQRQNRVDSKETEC

Work on “Mca-KPLGL-Dpa-AR-NH2, fluorogenic ADAM17 substrate (peptide)” yielded a Km of the ADAM17-catalysed cleavage of the fluorogenic substrate (Lineweaver–Burk plot), control without E144 of 580 µM and a Km of the ADAM17-catalysed cleavage of the fluorogenic substrate (Lineweaver–Burk plot), in the presence of 5 μM E144 of 20 µM.
